Results taken from article PMC12365241.
Where “and” joins values, the source holds several entries; their conditions need not be identical. Equal values may be shown once.

Molecular target: PorK (Porphyromonas gingivalis (endogenous))
Assay: cryo-EM structure

stoichiometry N: 32 and 33
Substance: PorK (natural protein)
